Key:
HeLa Kyoto [1] = test: solubility in G1/S (NP-40 vs SDS abundance) (log2 ratio); higher = more soluble; settings: cell cycle stage: G1/S
HeLa Kyoto [2] = test: solubility change mitosis vs G1/S (difference of NP-40 vs SDS log2 ratios) (log2 ratio difference); higher = more soluble in mitosis
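Throughout, for solubility change mitosis vs G1/S (difference of NP-40 vs SDS log2 ratios): synchronized HeLa Kyoto cells (double thymidine block for G1/S, nocodazole release for mitosis), protein amounts in NP-40 versus SDS lysates quantified by mass spectrometry, three biological replicates.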
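Throughout, for solubility in G1/S (NP-40 vs SDS abundance): HeLa Kyoto cells arrested at G1/S by double thymidine block, proteins quantified by TMT10plex mass spectrometry in mild NP-40 versus SDS extracts, three biological replicates.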

Substance	solubility in G1/S (log2) (HeLa Kyoto [1])	solubility change mitosis (log2) (HeLa Kyoto [2])
MVKLIHTLADHGDDVNCCAFSFSLLATCSLDKTIRLYSLRDFTELPHSPLKFHTYAVHCCCFSPSGHILASCSTDGTTVLWNTENGQMLAVMEQPSGSPVRVCQFSPDSTCLASGAADGTVVLWNAQSYKLYRCGSVKDGSLAACAFSPNGSFFVTGSSCGDLTVWDDKMRCLHSEKAHDLGITCCDFSSQPVSDGEQGLQFFRLASCGQDCQVKIWIVSFTHILGFELKYKSTLSGHCAPVLACAFSHDGQMLVSGSVDKSVIVYDTNTENILHTLTQHTRYVTTCAFAPNTLLLATGSMDKTVNIWQFDLETLCQARRTEHQLKQFTEDWSEEDVSTWLCAQDLKDLVGIFKMNNIDGKELLNLTKESLADDLKIESLGLRSKVLRKIEELRTKVKSLSSGIPDEFICPITRELMKDPVIASDGYSYEKEAMENWISKKKRTSPMTNLVLPSAVLTPNRTLKMAINRWLETHQK [WDSUB1]	-0.0154	-0.112
MVTNKMTAAFRNPSGKQVATDKVAEKLSSTLSWVKNTVSHTVSQMASQVASPSTSLHTTSSSTTLSTPALSPSSPSQLSPDDLELLAKLEEQNRLLETDSKSLRSVNGSRRNSGSSLVSSSSASSNLSHLEEDSWILWGRIVNEWEDVRKKKEKQVKELVHKGIPHHFRAIVWQLLCSAQSMPIKDQYSELLKMTSPCEKLIRRDIARTYPEHNFFKEKDSLGQEVLFNVMKAYSLVDREVGYCQGSAFIVGLLLMQMPEEEAFCVFVKLMQDYRLRELFKPSMAELGLCMYQFECMIQEHLPELFVHFQSQSFHTSMYASSWFLTIFLTTFPLPIATRIFDIFMSEGLEIVFRVGLALLQMNQAELMQLDMEGMLQHFQKVIPHQFDGVPDKLIQAAYQVKYNSKKMKKLEKEYTTIKTKEMEEQVEIKRLRTENRLLKQRIETLEKHKCSSNYNEDFVLQLEKELVQARLSEAESQCALKEMQDKVLDIEKRNNSLPDENNIARLQEELIAVKLREAEAIMGLKELRQQVKDLEEHWQRHLARTTGRWKDPPKKNAMNELQDELMTIRLREAETQAEIREIKQRMMEMETQNQINSNHLRRAEQEVISLQEKVQYLSAQNKGLLTQLSEAKRKQAEIECKNKEEVMAVRLREADSIAAVAELRQHIAELEIQKEEGKLQGQLNKSDSNQYIGELKDQIAELNHELRCLKGQRGFSGQPPFDGIHIVNHLIGDDESFHSSDEDFIDNSLQETGVGFPLHGKSGSMSLDPAVADGSESETEDSVLETRESNQVVQKERPPRRRESYSTTV [EVI5]	0.129	-0.288
MWCIVLFSLLAWVYAEPTMYGEILSPNYPQAYPSEVEKSWDIEVPEGYGIHLYFTHLDIELSENCAYDSVQIISGDTEEGRLCGQRSSNNPHSPIVEEFQVPYNKLQVIFKSDFSNEERFTGFAAYYVATDINECTDFVDVPCSHFCNNFIGGYFCSCPPEYFLHDDMKNCGVNCSGDVFTALIGEIASPNYPKPYPENSRCEYQIRLEKGFQVVVTLRREDFDVEAADSAGNCLDSLVFVAGDRQFGPYCGHGFPGPLNIETKSNALDIIFQTDLTGQKKGWKLRYHGDPMPCPKEDTPNSVWEPAKAKYVFRDVVQITCLDGFEVVEGRVGATSFYSTCQSNGKWSNSKLKCQPVDCGIPESIENGKVEDPESTLFGSVIRYTCEEPYYYMENGGGGEYHCAGNGSWVNEVLGPELPKCVPVCGVPREPFEEKQRIIGGSDADIKNFPWQVFFDNPWAGGALINEYWVLTAAHVVEGNREPTMYVGSTSVQTSRLAKSKMLTPEHVFIHPGWKLLEVPEGRTNFDNDIALVRLKDPVKMGPTVSPICLPGTSSDYNLMDGDLGLISGWGRTEKRDRAVRLKAARLPVAPLRKCKEVKVEKPTADAEAYVFTPNMICAGGEKGMDSCKGDSGGAFAVQDPNDKTKFYAAGLVSWGPQCGTYGLYTRVKNYVDWIMKTMQENSTPRED [C1S]	0.0236	-0.029
MWEKMETKTIVYDLDTSGGLMEQIQALLAPPKTDEAEKRSRKPEKEPRRSGRATNHDSCDSCKEGGDLLCCDHCPAAFHLQCCNPPLSEEMLPPGEWMCHRCTVRRKKREQKKELGHVNGLVDKSGKRTTSPSSDTDLLDRSASKTELKAIAHARILERRASRPGTPTSSASTETPTSEQNDVDEDIIDVDEEPVAAEPDYVQPQLRRPFELLIAAAMERNPTQFQLPNELTCTTALPGSSKRRRKEETTGKNVKKTQHELDHNGLVPLPVKVCFTCNRSCRVAPLIQCDYCPLLFHMDCLEPPLTAMPLGRWMCPNHIEHVVLNQKNMTLSNRCQVFDRFQDTVSQHVVKVDFLNRIHKKHPPNRRVLQSVKRRSLKVPDAIKSQYQFPPPLIAPAAIRDGELICNGIPEESQMHLLNSEHLATQAEQQEWLCSVVALQCSILKHLSAKQMPSHWDSEQTEKADIKPVIVTDSSVTTSLQTADKTPTPSHYPLSCPSGISTQNSLSCSPPHQSPALEDIGCSSCAEKSKKTPCGTANGPVNTEVKANGPHLYSSPTDSTDPRRLPGANTPLPGLSHRQGWPRPLTPPAAGGLQNHTVGIIVKTENATGPSSCPQRSLVPVPSLPPSIPSSCASIENTSTLQRKTVQSQIGPPLTDSRPLGSPPNATRVLTPPQAAGDGILATTANQRFSSPAPSSDGKVSPGTLSIGSALTVPSFPANSTAMVDLTNSLRAFMDVNGEIEINMLDEKLIKFLALQRIHQLFPSRVQPSPGSVGTHQLASGGHHIEVQRKEVQARAVFYPLLGLGGAVNMCYRTLYIGTGADMDVCLTNYGHCNYVSGKHACIFYDENTKHYELLNYSEHGTTVDNVLYSCDFSEKTPPTPPSSIVAKVQSVIRRRRHQKQDEEPSEEAAMMSSQAQGPQRRPCNCKASSSSLIGGSGAGWEGTALLHHGSYIKLGCLQFVFSITEFATKQPKGDASLLQDGVLAEKLSLKPHQGPVLRSNSVP [PHF12]	-0.326	0.237
MWGFRLLRSPPLLLLLPQLGIGNASSCSQARTMNPGGSGGARCSLSAEVRRRQCLQLSTVPGADPQRSNELLLLAAAGEGLERQDLPGDPAKEEPQPPPQHHVLYFPGDVQNYHEIMTRHPENYQWENWSLENVATILAHRFPNSYIWVIKCSRMHLHKFSCYDNFVKSNMFGAPEHNTDFGAFKHLYMLLVNAFNLSQNSLSKKSLNVWNKDSIASNCRSSPSHTTNGCQGEKVRTCEKSDESAMSFYPPSLNDASFTLIGFSKGCVVLNQLLFELKEAKKDKNIDAFIKSIRTMYWLDGGHSGGSNTWVTYPEVLKEFAQTGIIVHTHVTPYQVRDPMRSWIGKEHKKFVQILGDLGMQVTSQIHFTKEAPSIENHFRVHEVF [C2ORF69]	0.0592	0.0615
MWSLTASEGESTTAHFFLGAGDEGLGTRGIGMRPEESDSELLEDEEDEVPPEPQIIVGICAMTKKSKSKPMTQILERLCRFDYLTVVILGEDVILNEPVENWPSCHCLISFHSKGFPLDKAVAYSKLRNPFLINDLAMQYYIQDRREVYRILQEEGIDLPRYAVLNRDPARPEECNLIEGEDQVEVNGAVFPKPFVEKPVSAEDHNVYIYYPSSAGGGSQRLFRKIGSRSSVYSPESSVRKTGSYIYEEFMPTDGTDVKVYTVGPDYAHAEARKSPALDGKVERDSEGKEIRYPVMLTAMEKLVARKVCVAFKQTVCGFDLLRANGHSFVCDVNGFSFVKNSMKYYDDCAKILGNTIMRELAPQFQIPWSIPTEAEDIPIVPTTSGTMMELRCVIAIIRHGDRTPKQKMKMEVKHPRFFALFEKHGGYKTGKLKLKRPEQLQEVLDITRLLLAELEKEPGGEIEEKTGKLEQLKSVLEMYGHFSGINRKVQLTYYPHGVKASNEGQDPQRETLAPSLLLVLKWGGELTPAGRVQAEELGRAFRCMYPGGQGDYAGFPGCGLLRLHSTFRHDLKIYASDEGRVQMTAAAFAKGLLALEGELTPILVQMVKSANMNGLLDSDGDSLSSCQHRVKARLHHILQQDAPFGPEDYDQLAPTRSTSLLNSMTIIQNPVKVCDQVFALIENLTHQIRERMQDPRSVDLQLYHSETLELMLQRWSKLERDFRQKSGRYDISKIPDIYDCVKYDVQHNGSLGLQGTAELLRLSKALADVVIPQEYGISREEKLEIAVGFCLPLLRKILLDLQRTHEDESVNKLHPLCYLRYSRGVLSPGRHVRTRLYFTSESHVHSLLSVFRYGGLLDETQDAQWQRALDYLSAISELNYMTQIVIMLYEDNTQDPLSEERFHVELHFSPGVKGVEEEGSAPAGCGFRPASSENEEMKTNQGSMENLCPGKASDEPDRALQTSPQPPEGPGLPRRSPLIRNRKAGSMEVLSETSSSRPGGYRLFSSSRPPTEMKQSGLGSQCTGLFSTTVLGGSSSAPNLQDYARSHGKKLPPASLKHRDELLFVPAVKRFSVSFAKHPTNGFEGCSMVPTIYPLETLHNALSLRQVSEFLSRVCQRHTDAQAQASAALFDSMHSSQASDNPFSPPRTLHSPPLQLQQRSEKPPWYSSGPSSTVSSAGPSSPTTVDGNSQFGFSDQPSLNSHVAEEHQGLGLLQETPGSGAQELSIEGEQELFEPNQSPQVPPMETSQPYEEVSQPCQEVPDISQPCQDISEALSQPCQKVPDISQQCQENHDNGNHTCQEVPHISQPCQKSSQLCQKVSEEVCQLCLENSEEVSQPCQGVSVEVGKLVHKFHVGVGSLVQETLVEVGSPAEEIPEEVIQPYQEFSVEVGRLAQETSAINLLSQGIPEIDKPSQEFPEEIDLQAQEVPEEIN [PPIP5K1]	-0.000791	-0.212
MWVNPEEVLLANALWITERANPYFILQRRKGHAGDGGGGGGLAGLLVGTLDVVLDSSARVAPYRILYQTPDSLVYWTIACGGSRKEITEHWEWLEQNLLQTLSIFENENDITTFVRGKIQGIIAEYNKINDVKEDDDTEKFKEAIVKFHRLFGMPEEEKLVNYYSCSYWKGKVPRQGWMYLSINHLCFYSFLMGREAKLVIRWVDITQLEKNATLLLPDVIKVSTRSSEHFFSVFLNINETFKLMEQLANIAMRQLLDNEGFEQDRSLPKLKRKSPKKVSALKRDLDARAKSERYRALFRLPKDEKLDGHTDCTLWTPFNKMHILGQMFVSTNYICFTSKEENLCSLIIPLREVTIVEKADSSSVLPSPLSISTRNRMTFLFANLKDRDFLVQRISDFLQQTTSKIYSDKEFAGSYNSSDDEVYSRPSSLVSSSPQRSTSSDADGERQFNLNGNSVPTATQTLMTMYRRRSPEEFNPKLAKEFLKEQAWKIHFAEYGQGICMYRTEKTRELVLKGIPESMRGELWLLLSGAINEKATHPGYYEDLVEKSMGKYNLATEEIERDLHRSLPEHPAFQNEMGIAALRRVLTAYAFRNPNIGYCQAMNIVTSVLLLYAKEEEAFWLLVALCERMLPDYYNTRVVGALVDQGVFEELARDYVPQLYDCMQDLGVISTISLSWFLTLFLSVMPFESAVVVVDCFFYEGIKVIFQLALAVLDANVDKLLNCKDDGEAMTVLGRYLDSVTNKDSTLPPIPHLHSLLSDDVEPYPEVDIFRLIRTSYEKFGTIRADLIEQMRFKQRLKVIQTLEDTTKRNVVRTIVTETSFTIDELEELYALFKAEHLTSCYWGGSSNALDRHDPSLPYLEQYRIDFEQFKGMFALLFPWACGTHSDVLASRLFQLLDENGDSLINFREFVSGLSAACHGDLTEKLKLLYKMHVLPEPSSDQDEPDSAFEATQYFFEDITPECTHVVGLDSRSKQGADDGFVTVSLKPDKGKRANSQENRNYLRLWTPENKSKSKNAKDLPKLNQGQFIELCKTMYNMFSEDPNEQELYHATAAVTSLLLEIGEVGKLFVAQPAKEGGSGGSGPSCHQGIPGVLFPKKGPGQPYVVESVEPLPASLAPDSEEHSLGGQMEDIKLEDSSPRDNGACSSMLISDDDTKDDSSMSSYSVLSAGSHEEDKLHCEDIGEDTVLVRSGQGTAALPRSTSLDRDWAITFEQFLASLLTEPALVKYFDKPVCMMARITSAKNIRMMGKPLTSASDYEISAMSG [TBC1D9]	-0.4	0.38
MYLK	-0.635	0.101
